Paper PMC13013481

Target: RSV G central conserved cysteine-rich region peptide (Gpep, residues 149-196) (respiratory syncytial virus strain A2)
Assay: Tricine SDS-PAGE, non-reducing and reducing; 16% Tricine SDS-PAGE of concentrated Gpep, with or without β-mercaptoethanol and with or without heat denaturation

Question: How did the stoichiometry N turn out when “RSV G central conserved cysteine-rich region peptide (Gpep, residues 149-196)” was run?
Answer: 2
